Results from US20230265151A1, “GIP/GLP1 CO-AGONIST COMPOUNDS” (priority 2020, published 2023).
*1 amine or outer side, *2 acyl side, *3 side chain or, on linkers, in order; H or OH if unused. Where no end group is shown, it is not given here. Side-chain parts run from the residue outwards. [ ]: non-standard residue; d: D form. The star is where a group is joined. αMePhe(2-F) = C[C@](N)(Cc1ccccc1F)C(=O)O; γGlu = O=C(O)[C@H](CCC(=O)[*:2])N[*:1]; C14 diacid = O=C(O)CCCCCCCCCCCCC(=O)*; αMeY = C[C@](N)(Cc1ccc(O)cc1)C(=O)O; αMeL = CC(C)C[C@](C)(N)C(=O)O; Orn = NCCC[C@H](N)C(=O)O; AEEA = NCCOCCOCC(=O)O; Aib = CC(C)(N)C(=O)O

T1: human GIP receptor (human, UniProt P48546 22-466)
T1 sequence (looked up): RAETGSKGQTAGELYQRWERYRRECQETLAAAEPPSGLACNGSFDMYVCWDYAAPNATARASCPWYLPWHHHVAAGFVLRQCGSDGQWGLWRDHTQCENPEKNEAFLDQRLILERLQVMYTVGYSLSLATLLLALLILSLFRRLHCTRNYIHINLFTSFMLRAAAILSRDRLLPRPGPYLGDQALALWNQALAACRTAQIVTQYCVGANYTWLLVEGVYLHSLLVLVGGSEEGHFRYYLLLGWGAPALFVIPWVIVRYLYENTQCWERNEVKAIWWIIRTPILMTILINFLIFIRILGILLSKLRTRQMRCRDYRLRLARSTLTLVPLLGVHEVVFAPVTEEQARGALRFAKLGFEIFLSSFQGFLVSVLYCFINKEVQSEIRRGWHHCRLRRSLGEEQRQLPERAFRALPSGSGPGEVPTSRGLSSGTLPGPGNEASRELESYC

B1: Example 448 (peptide)
peptide: Y[Aib]EGT[αMePhe(2-F)]TSDV[Aib]I[αMeL]LD[Orn]QAQ[Aib][Orn]FIK([AEEA-AEEA-γGlu-C14 diacid])[αMeY]LIK([AEEA-AEEA-γGlu-C14 diacid])GGPSSGAPPPS-NH2
modifications: N-terminus assumed
SMILES: CC[C@H](C)[C@H](NC(=O)[C@H](CC(C)C)NC(=O)[C@](C)(Cc1ccc(O)cc1)NC(=O)[C@H](CCCCNC(=O)COCCOCCNC(=O)COCCOCCNC(=O)CC[C@H](NC(=O)CCCCCCCCCCCCC(=O)O)C(=O)O)NC(=O)[C@@H](NC(=O)[C@H](Cc1ccccc1)NC(=O)[C@H](CCCN)NC(=O)C(C)(C)NC(=O)[C@H](CCC(N)=O)NC(=O)[C@H](C)NC(=O)[C@H](CCC(N)=O)NC(=O)[C@H](CCCN)NC(=O)[C@H](CC(=O)O)NC(=O)[C@H](CC(C)C)NC(=O)[C@](C)(CC(C)C)NC(=O)[C@@H](NC(=O)C(C)(C)NC(=O)[C@@H](NC(=O)[C@H](CC(=O)O)NC(=O)[C@H](CO)NC(=O)[C@@H](NC(=O)[C@](C)(Cc1ccccc1F)NC(=O)[C@@H](NC(=O)CNC(=O)[C@H](CCC(=O)O)NC(=O)C(C)(C)NC(=O)[C@@H](N)Cc1ccc(O)cc1)[C@@H](C)O)[C@@H](C)O)C(C)C)[C@@H](C)CC)[C@@H](C)CC)C(=O)N[C@@H](CCCCNC(=O)COCCOCCNC(=O)COCCOCCNC(=O)CC[C@H](NC(=O)CCCCCCCCCCCCC(=O)O)C(=O)O)C(=O)NCC(=O)NCC(=O)N1CCC[C@H]1C(=O)N[C@@H](CO)C(=O)N[C@@H](CO)C(=O)NCC(=O)N[C@@H](C)C(=O)N1CCC[C@H]1C(=O)N1CCC[C@H]1C(=O)N1CCC[C@H]1C(=O)N[C@@H](CO)C(N)=O
B2: Example 449 (peptide)
peptide: YXEGTXTSDXXIXLDXQAQXXFIKXLIKGGPSSGAPPPS
modifications: not fully specified; Y-Aib-EGT-αMeF(2F)-TSD-4Pal-Aib-I-αMeL-LD-Orn-QAQ-Aib-Orn-FIK((2-[2-(2-Amino-ethoxy)-ethoxy]-acetyl)-Ahx-(γ-Glu)-CO-(CH2)12-CO2)-αMeY-LIK((2-[2-(2-Amino-ethoxy)-ethoxy]-acetyl)-Ahx-(γ-Glu)-CO-(CH2)12-CO2)GGPSSGAPPPS-NH2
B3: Example 450 (peptide)
peptide: B2 peptide
modifications: not fully specified; Y-Aib-EGT-αMeF(2F)-TSD-4Pal-Aib-I-αMeL-LD-Orn-QAQ-Aib-Orn-FIK((2-[2-(2-Amino-ethoxy)-ethoxy]-acetyl)-Aoc-(γ-Glu)-CO-(CH2)12-CO2)-αMeY-LIK((2-[2-(2-Amino-ethoxy)-ethoxy]-acetyl)-Aoc-(γ-Glu)-CO-(CH2)12-CO2)GGPSSGAPPPS-NH2
B4: Example 451 (peptide)
peptide: B2 peptide
modifications: not fully specified; Y-Aib-EGT-αMeF(2F)-TSD-4Pal-Aib-I-αMeL-LD-Orn-QAQ-Aib-Orn-FIK(Ahx-(2-[2-(2-Amino-ethoxy)-ethoxy]-acetyl)-(γ-Glu)-CO-(CH2)12-CO2)-αMeY-LIK(Ahx-(2-[2-(2-Amino-ethoxy)-ethoxy]-acetyl)-(γ-Glu)-CO-(CH2)12-CO2)GGPSSGAPPPS-NH2
B5: Example 452 (peptide)
peptide: B2 peptide
modifications: not fully specified; Y-Aib-EGT-αMeF(2F)-TSD-4Pal-Aib-I-αMeL-LD-Orn-QAQ-Aib-Orn-FIK(Aoc-(2-[2-(2-Amino-ethoxy)-ethoxy]-acetyl)-(γ-Glu)-CO-(CH2)12-CO2)-αMeY-LIK(Aoc-(2-[2-(2-Amino-ethoxy)-ethoxy]-acetyl)-(γ-Glu)-CO-(CH2)12-CO2)GGPSSGAPPPS-NH2
B6: Example 453 (peptide)
peptide: B2 peptide
modifications: Y-Aib-EGT-αMeF(2F)-TSD-4Pal-Aib-I-αMeL-LD-Orn-QAQ-Aib-Orn-FIK((2-[2-(2-Amino-ethoxy)-ethoxy]-acetyl)-Ahx-(γ-Glu)-(10-(4-carboxyphenoxy)decanoyl))-αMeY-LIK((2-[2-(2-Amino-ethoxy)-ethoxy]-acetyl)-Ahx-(γ-Glu)-(10-(4-carboxyphenoxy)decanoyl))GGPSSGAPPPS-NH2
B7: Example 454 (peptide)
peptide: B2 peptide
modifications: not fully specified; Y-Aib-EGT-αMeF(2F)-TSD-4Pal-Aib-I-αMeL-LD-Orn-QAQ-Aib-Orn-FIK((2-[2-(2-Amino-ethoxy)-ethoxy]10-(4-carboxyphenoxy)decanoyl))-αMeY-LIK((2-[2-(2-Amino-ethoxy)-ethoxy]-acetyl)-Aoc-(γ-Glu)-(10-(4-carboxyphenoxy)decanoyl))GGPSSGAPPPS-NH2
B8: Example 455 (peptide)
peptide: B2 peptide
modifications: Y-Aib-EGT-αMeF(2F)-TSD-4Pal-Aib-I-αMeL-LD-Orn-QAQ-Aib-Orn-FIK(Ahx-(2-[2-(2-Amino-ethoxy)-ethoxy]-acetyl)-(γ-Glu)-(10-(4-carboxyphenoxy)decanoyl))-αMeY-LIK(Ahx-(2-[2-(2-Amino-ethoxy)-ethoxy]-acetyl)-(γ-Glu)-(10-(4-carboxyphenoxy)decanoyl))GGPSSGAPPPS-NH2
B9: Example 456 (peptide)
peptide: B2 peptide
modifications: Y-Aib-EGT-αMeF(2F)-TSD-4Pal-Aib-I-αMeL-LD-Orn-QAQ-Aib-Orn-FIK(Aoc-(2-[2-(2-Amino-ethoxy)-ethoxy]-acetyl)-(γ-Glu)-(10-(4-carboxyphenoxy)decanoyl))-αMeY-LIK(Aoc-(2-[2-(2-Amino-ethoxy)-ethoxy]-acetyl)-(γ-Glu)-(10-(4-carboxyphenoxy)decanoyl))GGPSSGAPPPS-NH2
B10: Example 457 (peptide)
peptide: B2 peptide
modifications: Y-Aib-EGT-αMeF(2F)-TSD-4Pal-Aib-I-αMeL-LD-Orn-QAQ-Aib-Orn-FIK(PEG4-(γ-Glu)-CO-(CH2)12-CO2H)-αMeY-LIK(PEG4-(γ-Glu)-CO-(CH2)12-CO2H)GGPSSGAPPPS-NH2
B11: Example 458 (peptide)
peptide: B2 peptide
modifications: Y-Aib-EGT-αMeF(2F)-TSD-4Pal-Aib-I-αMeL-LD-Orn-QAQ-Aib-Orn-FIK(PEG3-(γ-Glu)-CO-(CH2)12-CO2H)-αMeY-LIK(PEG3-(γ-Glu)-CO-(CH2)12-CO2H)GGPSSGAPPPS-NH2
B12: Example 459 (peptide)
peptide: B2 peptide
modifications: Y-Aib-EGT-αMeF(2F)-TSD-4Pal-Aib-I-αMeL-LD-Orn-QAQ-Aib-Orn-FIK((2-[2-(2-Amino-ethoxy)-ethoxy]-acetyl)-(γ-Glu)-CO-(CH2)12-CO2H)-αMeY-LIK((2-[2-(2-Amino-ethoxy)-ethoxy]-acetyl)-(γ-Glu)-CO-(CH2)12-CO2H)GGPSSGAPPPS-NH2

Tests used:
Assay in all cases: cell-based or functional assay
human GIP receptor = target: T1, human GIP receptor
human glucagon receptor = human glucagon receptor (human, UniProt P47871 26-477)
human GLP-1 receptor = human GLP-1 receptor (human, UniProt P43220 24-463)

Chain of human glucagon receptor (P47871 26-477): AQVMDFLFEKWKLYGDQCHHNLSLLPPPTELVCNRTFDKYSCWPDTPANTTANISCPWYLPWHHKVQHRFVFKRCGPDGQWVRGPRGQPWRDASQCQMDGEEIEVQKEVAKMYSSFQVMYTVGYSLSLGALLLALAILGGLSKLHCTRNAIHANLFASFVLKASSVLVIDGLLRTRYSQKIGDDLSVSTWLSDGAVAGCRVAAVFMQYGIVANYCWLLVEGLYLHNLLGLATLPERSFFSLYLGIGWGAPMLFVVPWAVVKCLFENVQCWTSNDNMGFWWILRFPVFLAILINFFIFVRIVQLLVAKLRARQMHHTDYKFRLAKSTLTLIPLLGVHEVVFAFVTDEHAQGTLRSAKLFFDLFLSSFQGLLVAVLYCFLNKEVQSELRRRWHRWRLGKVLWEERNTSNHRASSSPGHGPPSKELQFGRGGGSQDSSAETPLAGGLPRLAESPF

Binder	cAMP EC50 (1.0% HSA) (human GIP receptor) [nM]	cAMP EC50 (1.0% HSA) (human glucagon receptor) [nM]	cAMP EC50 (1.0% HSA) (human GLP-1 receptor) [nM]	cAMP Emax (1.0% HSA) (human GLP-1 receptor) [%]
B1	1.41	> 9950	7.91	99.5
B2	0.595	> 9950	7.27	–
B3	2.44	> 9950	32.3	–
B4	0.518	> 9950	7.23	–
B5	1.21	> 9950	16.8	–
B6	0.451	> 9950	5.47	–
B7	1.3	> 9950	18.6	–
B8	0.362	> 9950	5.24	–
B9	0.878	> 9950	14.7	–
B10	0.334	> 9950	4.69	–
B11	0.726	> 9950	7.61	–
B12	0.323	> 9950	4.87	–
